Molecular target: the molecule itself
Test: cryo-EM structure

B1: Human ASCT2 (Alanine-Serine-Cysteine Transporter 2, SLC1A5) (natural protein)
chain: MVADPPRDSKGLAAAEPTANGGLALASIEDQGAAAGGYCGSRDQVRRCLRANLLVLLTVVAVVAGVALGLGVSGAGGALALGPERLSAFVFPGELLLRLLRMIILPLVVCSLIGGAASLDPGALGRLGAWALLFFLVTTLLASALGVGLALALQPGAASAAINASVGAAGSAENAPSKEVLDSFLDLARNIFPSNLVSAAFRSYSTTYEERNITGTRVKVPVGQEVEGMNILGLVVFAIVFGVALRKLGPEGELLIRFFNSFNEATMVLVSWIMWYAPVGIMFLVAGKIVEMEDVGLLFARLGKYILCCLLGHAIHGLLVLPLIYFLFTRKNPYRFLWGIVTPLATAFGTSSSSATLPLMMKCVEENNGVAKHISRFILPIGATVNMDGAALFQCVAAVFIAQLSQQSLDFVKIITILVTATASSVGAAGIPAGGVLTLAIILEAVNLPVDHISLILAVDWLVDRSCTVLNVEGDALGAGLLQNYVDRTESRSTEPELIQVKSELPLDPLPVPTEEGNPLLKHYRGPAGDATVASEKESVM
stoichiometry N: 3
